Experimental data published in PMC6827286.
Residue numbers refer to the chain shown, from its start. Numbers in names are those of the source.

Experiments:
colFD-NL [1] = target: T1, colFD-NL; test: BRET; conditions: chain shown with the change; in the ER of HEK293 cells; n = 4; parent: est. 100; read off a plot
T1 chain: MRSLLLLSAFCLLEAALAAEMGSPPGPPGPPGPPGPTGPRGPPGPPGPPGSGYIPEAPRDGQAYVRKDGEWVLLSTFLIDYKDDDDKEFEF

colFD-NL [2] = target: T1, colFD-NL; test: BRET; conditions: chain shown with the change; in the ER of HEK293 cells; n = 4; parent: est. 100; read off a plot
[3] = target: Collagen (pig's skin type I-C (Nitta Gelatin Inc.)) (pig); test: SPR; Biacore T200; collagen amine-coupled to a CM5 chip (∼2,000 response units), rmHsp47 injected; 10 mM HEPES, 0.15 M NaCl, 0.05% surfactant P20, pH 7.4; 25 °C; kobs linearization method (Anabel)
[4] = target: colFD-NL (bacteriophage T4); test: FRET or BRET; NanoBRET in the ER of living, transiently transfected HEK293 cells; colFD-NL (NanoLuc) donor, Hsp47-HT with HT ligand 618 (20-100 nM) acceptor; cells washed, furimazine added, 37 °C; BRET ratio 618/460 nm (mBU); some panels with Col003 and derivatives (2 h) or α,α-dipyridyl; the cell line is not named for every panel
[5] = target: colFD-NL (bacteriophage T4); test: FRET or BRET; NanoBRET in the ER of living, transiently transfected HeLa cells; colFD-NL donor, Hsp47-HT with HT ligand 618 acceptor; 37 °C

B1: Hsp47-HT, P19324 I352A (protein)
chain: AEVKKPLEAAAPGTAEKLSSKATTLAERSTGLAFSLYQAMAKDQAVENILLSPLVVASSLGLVSLGGKATTASQAKAVLSAEKLRDEEVHTGLGELLRSLSNSTARNVTWKLGSRLYGPSSVSFADDFVRSSKQHYNCEHSKINFRDKRSALQSINEWASQTTDGKLPEVTKDVERTDGALLVNAMFFKPHWDEKFHHKMVDNRGFMVTRSYTVGVTMMHRTGLYNYYDDEKEKLQMVEMPLAHKLSSLIILMPHHVEPLERLEKLLTKEQLKAWMGKMQKKAVAISLPKGVVEVTHDLQKHLAGLGLTEAIDKNKADLSRMSGKKDLYLASVFHATAFEWDTEGNPFDQDAYGREELRSPKLFYADHPFIFLVRDNQSGSLLFIGRLVRPKGDKMRDEL
percent of parent (colFD-NL [1]): 85%
percent of parent (colFD-NL [2]): 86%

B2: recombinant mouse Hsp47 (rmHsp47) Y353A (natural protein)
chain: B1 chain with A352I, Y353A
Kd [3]: 3.6 µM

B3: recombinant mouse Hsp47 (rmHsp47) I352A (natural protein)
chain: B1 chain
Kd [3]: 3.3 µM

B4: recombinant mouse Hsp47 (rmHsp47) WT (natural protein)
chain: B1 chain with A352I
Kd [3]: 1.5 µM

B5: Hsp47-HT (natural protein)
chain: B1 chain with A352I
modifications: HaloTag fluorescent ligand 618 on the HaloTag
BRET ratio (donor to acceptor 1:50, HEK293) [4]: 40 mBU
BRET ratio (donor to acceptor 1:100, HeLa) [5]: 25 mBU
